In patent publication US20180030151A1 (MOGAM INSTITUTE FOR BIOMEDICAL RESEARCH, published 2018):
Where two headings read alike, the source gives them in different places. Values belong to the binder of their own block, whether it stands above or below them.

Experiments:
Assay in all cases: cell-based or functional assay
[1] = biological target: T1, recombinant human TFPI (tissue factor pathway inhibitor) (human, UniProt P10646 29-304)
[2] = biological target: T1, recombinant human TFPI (tissue factor …); remark: listed apart in the source
[3] = biological target: T1, recombinant human TFPI (tissue factor …); remark: listed apart in the source
[4] = biological target: T1, recombinant human TFPI (tissue factor …); remark: listed apart in the source

FXa assay % of FXa alone, 2.5 nM Ab, 10 nM TFPI [4]: 4.7%
FXa assay % of FXa alone, 5 nM Ab, 10 nM TFPI [4]: 6.1%
FXa assay % of FXa alone, 10 nM Ab, 10 nM TFPI [4]: 7.1%
FXa assay % of FXa alone, 20 nM Ab, 10 nM TFPI [4]: 38.6%
FXa assay OD, 2.5 nM Ab, 10 nM TFPI [4]: 0.038
FXa assay OD, 20 nM Ab, 10 nM TFPI [4]: 0.314
B8: clone 4206 (antibody, V domains shown)
VH: EVQLVESGGGLVKPGGSLRLSCAASGFTFSSYAMNWVRQAPGKGLEWVSTITTGGSHTYYADSVEGRFTISRDNAKNSLYLQMDSLRAEDTAVYYCARQDGNFLMDYWGQGTLVTVSS
VL: DVVMTQTPLSLPVTLGQPASISCKSSQSLLDVDGKTYLNWLQQRPGQSPKRLIYLVSKLDSGVPDRFTGSGSGTDFTLKISRVEAEDVGVYYCWQGTHLPFTFGQGTKVEIKR

FXa assay % of FXa alone, 2.5 nM Ab, 10 nM TFPI [4]: 5%
FXa assay % of FXa alone, 5 nM Ab, 10 nM TFPI [4]: 6.1%
FXa assay % of FXa alone, 10 nM Ab, 10 nM TFPI [4]: 12.2%
FXa assay % of FXa alone, 20 nM Ab, 10 nM TFPI [4]: 53.1%
FXa assay OD, 2.5 nM Ab, 10 nM TFPI [4]: 0.041
FXa assay OD, 10 nM Ab, 10 nM TFPI [4]: 0.099
FXa assay OD, 20 nM Ab, 10 nM TFPI [4]: 0.431
B10: clone 4208 (antibody, V domains shown)
VH: EVQLVESGGGLVKSGGSLRLSCAASGFTFSSYAMSWVRQAPGKGLEWVGTITTGGSYTYYADSVQGRFTISRDNAKNSLYLQMNSLRAEDTAVYYCARQDGNFLMDYWGQGTLVTVSS
VL: DVVMTQTPLSLPVTLGQPASISCKSSQSLLDTDGKTYLNWLQQRPGQSPKRLIYLVSKLDSGVPDRFTGSGSGTDFTLKISRVEAEDVGVYYCWQGTHFPFTFGQGTKVEIKR

FXa assay % of FXa alone, 2.5 nM Ab, 10 nM TFPI [2]: 3.8%
FXa assay % of FXa alone, 5 nM Ab, 10 nM TFPI [2]: 3.6%
FXa assay % of FXa alone, 10 nM Ab, 10 nM TFPI [2]: 4.5%
FXa assay % of FXa alone, 20 nM Ab, 10 nM TFPI [2]: 4%
B11: clone 1234 (antibody, V domains shown)
VH: EVQLVESGGGLVKPGGSLRLSCAASGFTFSSYAMNWVRQAPGKGLEWVSTITTGGSYTYYADSVQGRFTISRDNAKNSLYLQMNSLRAEDTAVYYCARQDGNFLMDYWGQGTLVTVSS
VL: DVVMTQTPLSLPVTLGQPASISCKSSQSLLDIDGKTYLNWLQQRPGQSPKRLIYLVSKLDSGVPDRFTGSGSGTDFTLEISRVEAEDVGVYYCWQGTHFPFTFGQGTKVEIKR

FXa assay % of FXa alone, 2.5 nM Ab, 10 nM TFPI [2]: 4.5%
FXa assay % of FXa alone, 5 nM Ab, 10 nM TFPI [2]: 13.2%
FXa assay % of FXa alone, 10 nM Ab, 10 nM TFPI [2]: 5.6%
FXa assay % of FXa alone, 20 nM Ab, 10 nM TFPI [2]: 63.2%
FXa assay OD, 2.5 nM Ab, 10 nM TFPI [2]: 0.039
FXa assay OD, 5 nM Ab, 10 nM TFPI [2]: 0.115
FXa assay OD, 10 nM Ab, 10 nM TFPI [2]: 0.0485
FXa assay OD, 20 nM Ab, 10 nM TFPI [2]: 0.55
B12: clone 1238 (antibody, V domains shown)
VH: EVQLVESGGGLVKPGGSLRLSCAASGFTFSSYAMNWVRQAPGKGLEWVSTITTGGSYTYYADSVEGRFTISRDNAKNSLYLQMNSLRAEDTAVYYCARQDGHFLMDYWGQGTLVTVSS
VL: DVVMTQTPLSLPVTLGQPASISCKSSQSLLDVDGKTYLNWLQQRPGQSPKRLIYLVSKLDSGVPDRFTGSGSGTDFTLKISRVEAEDVGVYYCWQGTHFPFTFGQGTKVEIKR

Further lines, the binder ahead of its results:

B1: clone 1 (antibody, V domains shown)
VH: EVQLVESGGGLVKPGGSLRLSCAASGFTFSSYAMNWVRQAPGKGLEWVGTITTGGSYTYYADSVDGRFTISRDNAKNSLYLQMNSLRAEDTAVYYCARQDGNFLMDYWGQGTLVTVSS
VL: DVVMTQTPLSLPVTLGQPASISCKSSPSLLDSDGKTYLNWLQQRPGQSPKRLIYLVSKLDSGVPDRFTGSGSGTDFTLKISRVEAEDVGVYYCWQGTHFPFTFGQGTKVEIKR
FXa assay % of FXa alone, 2.5 nM Ab, 10 nM TFPI [1]: 6.3%
FXa assay % of FXa alone, 5 nM Ab, 10 nM TFPI [1]: 17.1%
FXa assay % of FXa alone, 10 nM Ab, 10 nM TFPI [1]: 50.1%
FXa assay % of FXa alone, 20 nM Ab, 10 nM TFPI [1]: 72%
FXa assay OD, 2.5 nM Ab, 10 nM TFPI [1]: 0.048
FXa assay OD, 5 nM Ab, 10 nM TFPI [1]: 0.131
FXa assay OD, 10 nM Ab, 10 nM TFPI [1]: 0.381
FXa assay OD, 20 nM Ab, 10 nM TFPI [1]: 0.548

B2: clone 1216 (antibody, V domains shown)
VH: EVQLVESGGGLVKPGGSLRLSCAASGFTFSHYAMNWVRQAPGKGLEWVSTITTGGSYTYYADSVEGRFTISRDNAKNSLYLQMNSLRAEDTAVYYCARQDGHFLMDYWGQGTLVTVSS
VL: DVVMTQTPLSLPVTLGQPASISCKSSQSLLDIDGKTYLNWLQQRPGQSPKRLIYLVSKLDSGVPDRFTGSGSGTDFTLKISRVEAEDVGVYYCWQGTHLPFTFGQGTKVEIKR
FXa assay % of FXa alone, 2.5 nM Ab, 10 nM TFPI [2]: 3.6%
FXa assay % of FXa alone, 5 nM Ab, 10 nM TFPI [2]: 4%
FXa assay % of FXa alone, 10 nM Ab, 10 nM TFPI [2]: 3.6%
FXa assay % of FXa alone, 20 nM Ab, 10 nM TFPI [2]: 3.3%

B3: clone 1104 (antibody, V domains shown)
VH: EVQLVESGGGLVKPGGSLRLSCAASGFTFSSYAMNWVRQAPGKGLEWVGTITTGGSHTYYADSVQGRFTISRDNAKNSLYLQMNSLRAEDTAVYYCARQDGNFLMDYWGQGTLVTVSS
VL: DVVMTQTPLSLPVTLGQPASISCKSSQSLLDVDGKTYLNWLQQRPGQSPKRLIYLVSKLDSGVPDRFTGSGSGTDFTLKISRVEAEDVGVYYCWQGTHFPFTFGQGTKVEIKR
FXa assay % of FXa alone, 2.5 nM Ab, 10 nM TFPI [3]: 8.5%
FXa assay % of FXa alone, 5 nM Ab, 10 nM TFPI [3]: 28.3%
FXa assay % of FXa alone, 10 nM Ab, 10 nM TFPI [3]: 60%
FXa assay % of FXa alone, 20 nM Ab, 10 nM TFPI [3]: 69.2%
FXa assay OD, 2.5 nM Ab, 10 nM TFPI [3]: 0.041
FXa assay OD, 5 nM Ab, 10 nM TFPI [3]: 0.137
FXa assay OD, 10 nM Ab, 10 nM TFPI [3]: 0.29
FXa assay OD, 20 nM Ab, 10 nM TFPI [3]: 0.335

B4: clone 1024 (antibody, V domains shown)
VH: EVQLVESGGGLVKPGGSLRLSCAASGFTFSSYAMSWVRQAPGKGLEWVSTITTGGSYTYYADSVDGRFTISRDNAKNSLYLQMNSLRAEDTAVYYCARQDGNFLMDYWGQGTLVTVSS
VL: DVVMTQTPLSLPVTLGQPASISCKSSQSLLDLDGKTYLNWLQQRPGQSPKRLIYLVSKLDSGVPDRFTGSGSGTDFTLKISRVEAEDVGVYYCWQGTHFPFTFGQGTKVEIKR
FXa assay % of FXa alone, 2.5 nM Ab, 10 nM TFPI [3]: 4.6%
FXa assay % of FXa alone, 5 nM Ab, 10 nM TFPI [3]: 6.2%
FXa assay % of FXa alone, 10 nM Ab, 10 nM TFPI [3]: 20.4%
FXa assay % of FXa alone, 20 nM Ab, 10 nM TFPI [3]: 42.7%
FXa assay OD, 2.5 nM Ab, 10 nM TFPI [3]: 0.0225
FXa assay OD, 5 nM Ab, 10 nM TFPI [3]: 0.03
FXa assay OD, 10 nM Ab, 10 nM TFPI [3]: 0.0985
FXa assay OD, 20 nM Ab, 10 nM TFPI [3]: 0.206

B5: clone 1224 (antibody, V domains shown)
VH: EVQLVESGGGLVKPGGSLRLSCAASGFTFSSYAMSWVRQAPGKGLEWVSTITTGGSYTYYADSVDGRFTISRDNAKNSLYLQMNSLRAEDTAVYYCARQDGNFLMDYWGQGTLVTVSS
VL: DVVMTQTPLSLPVTLGQPASISCKSSQSLLDIDGKTYLNWLQQRPGQSPKRLIYLVSKLDSGVPDRFTGSGSGTDFTLKISRVEAEDVGVYYCWQGTHFPFTFGQGTKVEIKR
FXa assay % of FXa alone, 2.5 nM Ab, 10 nM TFPI [2]: 5.1%
FXa assay % of FXa alone, 5 nM Ab, 10 nM TFPI [2]: 6.9%
FXa assay % of FXa alone, 10 nM Ab, 10 nM TFPI [2]: 29%
FXa assay % of FXa alone, 20 nM Ab, 10 nM TFPI [2]: 66.1%
FXa assay OD, 5 nM Ab, 10 nM TFPI [2]: 0.06
FXa assay OD, 10 nM Ab, 10 nM TFPI [2]: 0.252
FXa assay OD, 20 nM Ab, 10 nM TFPI [2]: 0.576

B6: clone 10 (antibody, V domains shown)
VH: EVQLVESGGGLVKPGGSLRLSCAASGFTFSSYAMNWVRQAPGKGLEWVSTITTGGSYTYYADSVQGRFTISRDNAKNSLYLQMNSLRAEDTAVYYCARQDGNFLMDYWGQGTLVTVSS
VL: DVVMTQTPLSLPVTLGQPASISCKSSPSLLDVDGKTYLNWLQQRPGQSPKRLIYLVSKLDSGVPDRFTGSGSGTDFTLKISRVEAEDVGVYYCWQGTHFPFTFGQGTKVEIKR
FXa assay % of FXa alone, 2.5 nM Ab, 10 nM TFPI [1]: 9.6%
FXa assay % of FXa alone, 5 nM Ab, 10 nM TFPI [1]: 5.1%
FXa assay % of FXa alone, 10 nM Ab, 10 nM TFPI [1]: 11.8%
FXa assay % of FXa alone, 20 nM Ab, 10 nM TFPI [1]: 38.4%
FXa assay OD, 2.5 nM Ab, 10 nM TFPI [1]: 0.073
FXa assay OD, 5 nM Ab, 10 nM TFPI [1]: 0.0385
FXa assay OD, 10 nM Ab, 10 nM TFPI [1]: 0.09
FXa assay OD, 20 nM Ab, 10 nM TFPI [1]: 0.292

B7: clone 1001 (antibody, V domains shown)
VH: EVQLVESGGGLVKPGGSLRLSCAASGFTFSSYAMNWVRQAPGKGLEWVSTITTGGSYTYYADSVDGRFTISRDNAKNSLYLQMNSLRAEDTAVYYCARQDGNFLMDYWGQGTLVTVSS
VL: DVVMTQTPLSLPVTLGQPASISCKSSQSLLDIDGKTYLNWLQQRPGQSPKRLIYLVSKLDSGVPDRFTGSGSGTDFTLKISRVEAEDVGVYYCWQGTHFPFTFGQGTKVEIKR
FXa assay % of FXa alone, 2.5 nM Ab, 10 nM TFPI [3]: 6.4%
FXa assay % of FXa alone, 5 nM Ab, 10 nM TFPI [3]: 10.3%
FXa assay % of FXa alone, 10 nM Ab, 10 nM TFPI [3]: 66.9%
FXa assay % of FXa alone, 20 nM Ab, 10 nM TFPI [3]: 73.9%
FXa assay OD, 2.5 nM Ab, 10 nM TFPI [3]: 0.031
FXa assay OD, 5 nM Ab, 10 nM TFPI [3]: 0.05
FXa assay OD, 10 nM Ab, 10 nM TFPI [3]: 0.324
FXa assay OD, 20 nM Ab, 10 nM TFPI [3]: 0.357

B9: clone 7 (antibody, V domains shown)
VH: EVQLVESGGGLVKPGGSLRLSCAASGFTFSSYAMNWVRQAPGKGLEWVGTITTGGSYTYYADSVDGRFTISRDNAKNSLYLQMNSLRAEDTAVYYCARQDGNFLMDYWGQGTLVTVSS
VL: DVVMTQTPLSLPVTLGQPASISCKSSPSLLDVDGKTYLNWLQQRPGQSPKRLIYLVSKLDSGVPDRFTGSGSGTDFTLKISRVEAEDVGVYYCWQGTHFPFTFGQGTKVEIKR
FXa assay % of FXa alone, 2.5 nM Ab, 10 nM TFPI [1]: 8.9%
FXa assay % of FXa alone, 5 nM Ab, 10 nM TFPI [1]: 31%
FXa assay % of FXa alone, 10 nM Ab, 10 nM TFPI [1]: 72.1%
FXa assay % of FXa alone, 20 nM Ab, 10 nM TFPI [1]: 75.4%
FXa assay OD, 2.5 nM Ab, 10 nM TFPI [1]: 0.0675
FXa assay OD, 5 nM Ab, 10 nM TFPI [1]: 0.236
FXa assay OD, 10 nM Ab, 10 nM TFPI [1]: 0.549
FXa assay OD, 20 nM Ab, 10 nM TFPI [1]: 0.574
